Laboratory results as given in patent US20120107323A1, “KINASE PROTEIN BINDING INHIBITORS” (University of Florida, published 2012).

Assays:
[1] = target: T1, Insulin-like Growth Factor 1 Receptor (IGF-1R), endogenous, of C8161 and A375 melanoma cells (human, UniProt P08069); experiment: co-immunoprecipitation from C8161 tumours of mice treated with the small molecule INT2-31, densitometry of Western blot
Procedure: (§1) (p<0.05). […] To assess the in vivo effects of INT2-31 on cell proliferation, C8161 xenografts were stained with Ki67 antibody (FIG. 20C). […] The effect of INT2-31 on the in vivo interaction of FAK and IGF-1R in C8161 tumors was analyzed by immunoprecipitation of FAK from treated and untreated tumor. […] Finally, tumor analysis for AKT activation was performed and the level of p-AKT was detected by Western blot. […] Therefore, our lead compound, INT2-31, decreases in vivo tumor growth, disrupts the in vivo interaction of FAK and IGF-1R and results in a decrease in phosphorylation of AKT.

[2] = target: T1, Insulin-like Growth Factor 1 Receptor …; experiment: co-immunoprecipitation from C8161 tumours of PBS treated mice, densitometry of Western blot
Procedure: as §1

densitometry ratio of IGF-1R to FAK [1]: 0.78
densitometry ratio of IGF-1R to FAK [2]: 0.98
B1: Focal adhesion kinase (FAK), endogenous, of C8161 and A375 melanoma cells (enzyme)
chain: AAAYLDPNLNHTPNSSTKTHLGTGMERSPGAMERVLKVFHYFESNSEPTTWASIIRHGDATDVRGIIQKIVDSHKVKHVACYGFRLSHLRSEEVHWLHVDMGVSSVREKYELAHPPEEWKYELRIRYLPKGFLNQFTEDKPTLNFFYQQVKSDYMLEIADQVDQEIALKLGCLEIRRSYWEMRGNALEKKSNYEVLEKDVGLKRFFPKSLLDSVKAKTLRKLIQQTFRQFANLNREESILKFFEILSPVYRFDKECFKCALGSSWIISVELAIGPEEGISYLTDKGCNPTHLADFTQVQTIQYSNSEDKDRKGMLQLKIAGAPEPLTVTAPSLTIAENMADLIDGYCRLVNGTSQSFIIRPQKEGERALPSIPKLANSEKQGMRTHAVSVSETDDYAEIIDEEDTYTMPSTRDYEIQRERIELGRCIGEGQFGDVHQGIYMSPENPALAVAIKTCKNCTSDSVREKFLQEALTMRQFDHPHIVKLIGVITENPVWIIMELCTLGELRSFLQVRKYSLDLASLILYAYQLSTALAYLESKRFVHRDIAARNVLVSSNDCVKLGDFGLSRYMEDSTYYKASKGKLPIKWMAPESINFRRFTSASDVWMFGVCMWEILMHGVKPFQGVKNNDVIGRIENGERLPMPPNCPPTLYSLMTKCWAYDPSRRPRFTELKAQLSTILEEEKAQQEERMRMESRRQATVSWDSGGSDEAPPKPSRPGYPSPRSSEGFYPSPQHMVQTNHYQVSGYPGSHGITAMAGSIYPGQASLLDQTDSWNHRPQEIAMWQPNVEDSTVLDLRGIGQVLPTHLMEERLIRQQQEMEEDQRWLEKEERFLKPDVRLSRGSIDREDGSLQGPIGNQHIYQPVGKPDPAAPPKKPPRPGAPGHLGSLASLSSPADSYNEGVKLQPQEISPPPTANLDRSNDKVYENVTGLVKAVIEMSSKIQPAPPEEYVPMVKEVGLALRTLLATVDETIPLLPASTHREIEMAQKLLNSDLGELINKMKLAQQYVMTSLQQEYKKQMLTAAHALAVDAKNLLDVIDQARLKMLGQTRPH
